B1: NRC3_wobSeed45_DR1_A20C_o1 (dsDNA)
DNA 1: GCTGTCAAAGTTCAAAGGTCACGTAAGTATCCACACGCGATTGACAGCGTAGAATGAAGG
DNA 2: CCTTCATTCTACGCTGTCAATCGCGTGTGGATACTTACGTGACCTTTGAACTTTGACAGC
B2: NRC3_wobSeed27_DR1_A12T_o1 (dsDNA)
DNA 1: GCACTCGGAGGTCAAAGGTCAGAGCTACGCCAGTGAGCGATTGACAGCGTAGAATGAAGG
DNA 2: CCTTCATTCTACGCTGTCAATCGCTCACTGGCGTAGCTCTGACCTTTGACCTCCGAGTGC
B3: NRC3_wobSeed42_DR1_C19T_o1 (dsDNA)
DNA 1: GCTATACAGGGTCAAAGGTCAGAGTACGAATGTCGAGCGATTGACAGCGTAGAATGAAGG
DNA 2: CCTTCATTCTACGCTGTCAATCGCTCGACATTCGTACTCTGACCTTTGACCCTGTATAGC
B4: NRC3_wobSeed37_DR1_G22T_o1 (dsDNA)
DNA 1: GCCGTCCAAGGTCAAAGGTCATTGAAGAGATGACGGGCGATTGACAGCGTAGAATGAAGG
DNA 2: CCTTCATTCTACGCTGTCAATCGCCCGTCATCTCTTCAATGACCTTTGACCTTGGACGGC
B5: NRC3_wobSeed29_DR1_T20C_o1 (dsDNA)
DNA 1: GCGCTTACGGGTCAAAGGTCATAGCATGAATAGAATGCGATTGACAGCGTAGAATGAAGG
DNA 2: CCTTCATTCTACGCTGTCAATCGCATTCTATTCATGCTATGACCTTTGACCCGTAAGCGC
B6: NRC3_wobSeed74_DR3_T9A_o1 (dsDNA)
DNA 1: GCTCTAGTAGGTCACGGAGGTCACACACGACGGGTAGCGATTGACAGCGTAGAATGAAGG
DNA 2: CCTTCATTCTACGCTGTCAATCGCTACCCGTCGTGTGTGACCTCCGTGACCTACTAGAGC

These binders were tested against RXRa (Homo sapiens, UniProt P19793) (assay: no ligand; PBM; 180 nM; PBS pH 7.4, 2% milk, 0.02% Triton X-100, 1 mM DTT, BSA, 0.4 mg/ml salmon testes DNA). Settings: tags: His cleaved; chain copies: 2; label: surface-attached array probe.

| Binder | binding signal |
| --- | --- |
| B1 | 11 PBM z-score against 500 random probes |
| B2 | 10.9 PBM z-score against 500 random probes |
| B3 | 10.7 PBM z-score against 500 random probes |
| B4 | 11.1 PBM z-score against 500 random probes |
| B5 | 10.8 PBM z-score against 500 random probes |

What follows are binders tested against THRa:RXRa (Homo sapiens, UniProt P10827;P19793 full;full) (assay: no ligand; PBM; 90 nM : 90 nM RXRa; PBS pH 7.4, 2% milk, 0.02% Triton X-100, 1 mM DTT, BSA, 0.4 mg/ml salmon testes DNA). Settings: tags: His kept;His cleaved; copies: 1;1; label: surface-attached array probe.

| Binder | binding signal |
| --- | --- |
| B1 | 5.33 PBM z-score against 500 random probes |
| B6 | 4.93 PBM z-score against 500 random probes |
| B2 | 4.83 PBM z-score against 500 random probes |
| B3 | 4.83 PBM z-score against 500 random probes |
| B4 | 5.12 PBM z-score against 500 random probes |
| B5 | 4.82 PBM z-score against 500 random probes |

These binders were tested against PPARg:RXRa (Homo sapiens, UniProt P37231;P19793 full;full) (assay: no ligand; PBM; 180 nM : 90 nM RXRa; PBS pH 7.4, 2% milk, 0.02% Triton X-100, 1 mM DTT, BSA, 0.4 mg/ml salmon testes DNA). Settings: tags: His kept;His cleaved; copies: 1;1; label: surface-attached array probe.

| Binder | binding signal |
| --- | --- |
| B1 | 11.8 PBM z-score against 500 random probes |
| B6 | 9.93 PBM z-score against 500 random probes |
| B2 | 11.6 PBM z-score against 500 random probes |
| B3 | 12.3 PBM z-score against 500 random probes |
| B4 | 12.1 PBM z-score against 500 random probes |
| B5 | 13.1 PBM z-score against 500 random probes |

These binders were tested against RARb:RXRa (Homo sapiens, UniProt P10826;P19793 full;full) (assay: no ligand; PBM; 270 nM : 90 nM RXRa; PBS pH 7.4, 2% milk, 0.02% Triton X-100, 1 mM DTT, BSA, 0.4 mg/ml salmon testes DNA). Settings: tags: His kept;His cleaved; copies: 1;1; label: surface-attached array probe.
Outline: (§1)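 Binding z-scores take random background probes as their reference. They come from custom Agilent 4×180K protein-binding microarrays incubated 1 h with ligand-free nuclear receptor dimers, with antibodies against each partner (one per run) detecting binding. Scanned fluorescence was regression-normalized.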

Sequence of RARb:RXRa (P10826 whole entry, chain 1 of 2): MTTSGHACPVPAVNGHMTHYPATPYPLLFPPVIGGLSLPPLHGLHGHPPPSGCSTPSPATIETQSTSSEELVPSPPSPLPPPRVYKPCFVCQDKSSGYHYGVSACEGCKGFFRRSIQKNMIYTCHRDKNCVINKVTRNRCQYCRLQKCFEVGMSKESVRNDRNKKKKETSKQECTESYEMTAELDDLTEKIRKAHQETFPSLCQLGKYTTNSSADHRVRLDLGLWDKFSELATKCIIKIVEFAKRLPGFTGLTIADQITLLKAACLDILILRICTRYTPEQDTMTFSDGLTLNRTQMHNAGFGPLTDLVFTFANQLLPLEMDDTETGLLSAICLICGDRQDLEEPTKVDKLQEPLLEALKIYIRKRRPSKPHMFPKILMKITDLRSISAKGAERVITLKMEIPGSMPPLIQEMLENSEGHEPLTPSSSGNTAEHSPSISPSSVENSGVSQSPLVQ
Sequence of RARb:RXRa (P19793 whole entry, chain 2 of 2): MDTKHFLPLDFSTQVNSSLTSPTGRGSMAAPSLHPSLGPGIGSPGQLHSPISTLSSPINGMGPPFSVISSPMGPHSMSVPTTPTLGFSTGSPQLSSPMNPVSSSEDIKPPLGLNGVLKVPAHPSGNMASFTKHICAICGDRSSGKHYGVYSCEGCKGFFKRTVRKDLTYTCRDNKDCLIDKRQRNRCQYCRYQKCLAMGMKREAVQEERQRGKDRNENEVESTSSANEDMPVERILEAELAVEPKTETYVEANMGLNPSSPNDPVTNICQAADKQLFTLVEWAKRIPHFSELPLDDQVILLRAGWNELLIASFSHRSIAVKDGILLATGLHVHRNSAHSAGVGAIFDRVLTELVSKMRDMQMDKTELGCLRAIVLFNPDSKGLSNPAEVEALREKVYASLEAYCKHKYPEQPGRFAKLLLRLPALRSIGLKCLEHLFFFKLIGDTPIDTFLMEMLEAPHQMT

| Binder | binding signal |
| --- | --- |
| B1 | 6.42 PBM z-score against 500 random probes |
| B6 | 5.43 PBM z-score against 500 random probes |
| B2 | 5.85 PBM z-score against 500 random probes |
| B3 | 5.62 PBM z-score against 500 random probes |
| B5 | 5.71 PBM z-score against 500 random probes |

Each binder was assayed against VDR:RXRa (Homo sapiens, UniProt P11473;P19793 full;full) in the same assay as above. Settings: tags: His kept;His cleaved; copies: 1;1; label: surface-attached array probe.
Outline: as §1

Sequence of VDR:RXRa (P11473 whole entry, chain 1 of 2): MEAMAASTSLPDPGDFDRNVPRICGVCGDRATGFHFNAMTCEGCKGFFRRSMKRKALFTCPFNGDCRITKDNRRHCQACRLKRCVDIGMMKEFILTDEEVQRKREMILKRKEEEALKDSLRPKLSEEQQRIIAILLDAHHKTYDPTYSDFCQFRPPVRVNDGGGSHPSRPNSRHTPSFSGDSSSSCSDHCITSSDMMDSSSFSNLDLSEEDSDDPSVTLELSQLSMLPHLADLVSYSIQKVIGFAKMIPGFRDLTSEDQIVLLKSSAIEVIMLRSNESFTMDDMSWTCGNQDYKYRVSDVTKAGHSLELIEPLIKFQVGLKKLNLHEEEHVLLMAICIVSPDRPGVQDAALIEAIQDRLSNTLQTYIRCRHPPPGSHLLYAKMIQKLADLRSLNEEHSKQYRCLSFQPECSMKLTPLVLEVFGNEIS
Sequence of VDR:RXRa (P19793 whole entry, chain 2 of 2): as the sequence (P19793 whole entry, chain 2 of 2) above

| Binder | binding signal |
| --- | --- |
| B1 | 7.65 PBM z-score against 500 random probes |
| B6 | 7.91 PBM z-score against 500 random probes |
| B2 | 7.02 PBM z-score against 500 random probes |
| B3 | 7.15 PBM z-score against 500 random probes |
| B4 | 7.41 PBM z-score against 500 random probes |
| B5 | 7.18 PBM z-score against 500 random probes |

Each binder was assayed against LXRa:RXRa (Homo sapiens, UniProt Q13133;P19793 full;full) in the same assay as above. Settings: tags: His kept;His cleaved; copies: 1;1; label: surface-attached array probe.
Outline: as §1

| Binder | binding signal |
| --- | --- |
| B1 | 8.34 PBM z-score against 500 random probes |
| B2 | 7.5 PBM z-score against 500 random probes |
| B3 | 7.52 PBM z-score against 500 random probes |
| B4 | 7.79 PBM z-score against 500 random probes |
| B5 | 7.26 PBM z-score against 500 random probes |

The binders below were run against PPARa:RXRa (Homo sapiens, UniProt Q07869;P19793 full;full) in the same assay as above. Settings: tags: GST kept;His cleaved; copies: 1;1; label: surface-attached array probe.
Outline: as §1

| Binder | binding signal |
| --- | --- |
| B1 | 7.56 PBM z-score against 500 random probes |
| B2 | 7.2 PBM z-score against 500 random probes |
| B3 | 7.46 PBM z-score against 500 random probes |
| B5 | 7.49 PBM z-score against 500 random probes |

Each binder was assayed against LXRb:RXRa (Homo sapiens, UniProt P55055;P19793 full;full) in the same assay as above. Settings: tags: His kept;His cleaved; copies: 1;1; label: surface-attached array probe.
Outline: as §1

| Binder | binding signal |
| --- | --- |
| B1 | 7.9 PBM z-score against 500 random probes |
| B2 | 6.9 PBM z-score against 500 random probes |
| B3 | 7.29 PBM z-score against 500 random probes |
| B4 | 7.46 PBM z-score against 500 random probes |
| B5 | 7.5 PBM z-score against 500 random probes |

These binders were tested against FXR:RXRa (Homo sapiens, UniProt Q96RI1;P19793 full;full) in the same assay as above. Settings: tags: His kept;His cleaved; copies: 1;1; label: surface-attached array probe.
Outline: as §1

Sequence of FXR:RXRa (Q96RI1 whole entry, chain 1 of 2): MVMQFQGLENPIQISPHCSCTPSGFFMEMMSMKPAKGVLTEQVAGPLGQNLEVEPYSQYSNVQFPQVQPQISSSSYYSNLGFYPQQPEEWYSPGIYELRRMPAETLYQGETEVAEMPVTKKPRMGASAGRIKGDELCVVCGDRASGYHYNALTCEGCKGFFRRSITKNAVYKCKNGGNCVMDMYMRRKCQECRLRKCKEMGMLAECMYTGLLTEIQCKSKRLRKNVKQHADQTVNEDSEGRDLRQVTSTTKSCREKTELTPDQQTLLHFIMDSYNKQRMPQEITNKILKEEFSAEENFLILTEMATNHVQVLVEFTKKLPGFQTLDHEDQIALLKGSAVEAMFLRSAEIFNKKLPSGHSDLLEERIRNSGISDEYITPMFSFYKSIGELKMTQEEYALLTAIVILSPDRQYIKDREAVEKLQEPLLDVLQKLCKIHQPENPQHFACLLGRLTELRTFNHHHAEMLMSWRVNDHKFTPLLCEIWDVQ
Sequence of FXR:RXRa (P19793 whole entry, chain 2 of 2): as the sequence (P19793 whole entry, chain 2 of 2) above

| Binder | binding signal |
| --- | --- |
| B1 | 9.44 PBM z-score against 500 random probes |
| B2 | 8.54 PBM z-score against 500 random probes |
| B3 | 8.5 PBM z-score against 500 random probes |
| B4 | 8.93 PBM z-score against 500 random probes |
| B5 | 8.57 PBM z-score against 500 random probes |

Each binder was assayed against PXR:RXRa (Homo sapiens, UniProt O75469;P19793 full;full) in the same assay as above. Settings: tags: His kept;His cleaved; copies: 1;1; label: surface-attached array probe.
Outline: as §1

Sequence of PXR:RXRa (O75469 whole entry, chain 1 of 2): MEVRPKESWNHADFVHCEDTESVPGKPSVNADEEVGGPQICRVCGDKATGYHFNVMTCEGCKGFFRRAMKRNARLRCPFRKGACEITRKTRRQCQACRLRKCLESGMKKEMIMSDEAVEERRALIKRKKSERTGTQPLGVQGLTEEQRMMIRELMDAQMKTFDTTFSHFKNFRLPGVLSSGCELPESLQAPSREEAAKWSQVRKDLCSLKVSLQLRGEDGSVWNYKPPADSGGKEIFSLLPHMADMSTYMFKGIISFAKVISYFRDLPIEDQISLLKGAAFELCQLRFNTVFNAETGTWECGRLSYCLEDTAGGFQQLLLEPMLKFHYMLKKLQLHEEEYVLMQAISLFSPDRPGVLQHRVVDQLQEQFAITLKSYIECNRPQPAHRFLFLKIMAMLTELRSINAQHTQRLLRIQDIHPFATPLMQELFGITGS
Sequence of PXR:RXRa (P19793 whole entry, chain 2 of 2): as the sequence (P19793 whole entry, chain 2 of 2) above

| Binder | binding signal |
| --- | --- |
| B1 | 8.16 PBM z-score against 500 random probes |
| B6 | 6.39 PBM z-score against 500 random probes |
| B2 | 7.52 PBM z-score against 500 random probes |
| B3 | 7.29 PBM z-score against 500 random probes |
| B4 | 7.7 PBM z-score against 500 random probes |
| B5 | 7.5 PBM z-score against 500 random probes |

The binders below were run against RARa:RXRa (Homo sapiens, UniProt P10276;P19793 full;full) in the same assay as above. Settings: tags: His kept;His cleaved; copies: 1;1; label: surface-attached array probe.
Outline: as §1

| Binder | binding signal |
| --- | --- |
| B1 | 9.47 PBM z-score against 500 random probes |
| B6 | 7.07 PBM z-score against 500 random probes |
| B2 | 9.37 PBM z-score against 500 random probes |
| B3 | 9.11 PBM z-score against 500 random probes |
| B4 | 9.26 PBM z-score against 500 random probes |
| B5 | 9.33 PBM z-score against 500 random probes |

These binders were tested against RARg:RXRa (Homo sapiens, UniProt P13631;P19793 full;full) in the same assay as above. Settings: tags: His kept;His cleaved; copies: 1;1; label: surface-attached array probe.
Outline: as §1

Sequence of RARg:RXRa (P13631 whole entry, chain 1 of 2): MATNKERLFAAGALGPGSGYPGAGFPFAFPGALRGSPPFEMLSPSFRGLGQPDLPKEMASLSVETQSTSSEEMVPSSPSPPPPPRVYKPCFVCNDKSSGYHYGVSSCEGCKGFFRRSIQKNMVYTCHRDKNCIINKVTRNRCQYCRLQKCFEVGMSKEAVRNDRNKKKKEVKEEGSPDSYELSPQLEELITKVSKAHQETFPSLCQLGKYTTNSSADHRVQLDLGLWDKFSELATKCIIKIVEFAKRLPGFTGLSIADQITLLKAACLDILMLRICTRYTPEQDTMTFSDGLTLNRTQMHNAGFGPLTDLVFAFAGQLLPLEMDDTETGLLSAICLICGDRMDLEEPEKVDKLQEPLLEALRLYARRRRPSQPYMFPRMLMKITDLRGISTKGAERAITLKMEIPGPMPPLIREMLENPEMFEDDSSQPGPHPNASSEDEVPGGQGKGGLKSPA
Sequence of RARg:RXRa (P19793 whole entry, chain 2 of 2): as the sequence (P19793 whole entry, chain 2 of 2) above

| Binder | binding signal |
| --- | --- |
| B1 | 9.56 PBM z-score against 500 random probes |
| B2 | 9.09 PBM z-score against 500 random probes |
| B3 | 8.67 PBM z-score against 500 random probes |
| B4 | 9.4 PBM z-score against 500 random probes |
| B5 | 9.01 PBM z-score against 500 random probes |

— paper PMC6555819, “Comprehensive study of nuclear receptor DNA binding provides a revised framework for understanding receptor specificity”
